Data as given in patent US20250340662A1 (AKIRAM THERAPEUTICS, published 2025).

T1: Human v6-peptide (human, N-terminal biotin)
T1 construct: Bachem #4108947, 43 amino acids, synthetic; also called Hm v6-peptide; hm v6-peptide
T1 peptide: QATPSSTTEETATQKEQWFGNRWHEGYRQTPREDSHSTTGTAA

T2: Cynomolgus v6-peptide (cynomolgus, UniProt A0A2K5VJE0 387-429, N-terminal biotin)
T2 construct: domain: v6-region (43 amino acids); also called Cm v6-peptide; cm v6-peptide
T2 peptide: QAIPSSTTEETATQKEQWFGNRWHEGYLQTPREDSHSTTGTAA


Columns and labels:
[1] = molecular target: T3, Human CD44 iso6-Fc (human, UniProt P16070-6 21-606, limits assumed, chemically biotinylated in the form called Bio-CD44); experiment: SPR SCK, antibody immobilised, CD44-Fc injected
T3 construct: Negative control antigen, ProMab, HKB11 cells; also called Bio-CD44; bio-CD44
Method: (§1) The SPR measurements were performed on a BIAcore T200 instrument (Cytiva) using a SCK approach. Each antibody was directly immobilized onto a separate surface of a CM5 series S sensor chip using EDC/NHS amine coupling chemistry according to manufacturer's recommendations. Immobilization levels were set to 1500 RU. All experiments were performed at 25° C. in running buffer (HBS, 0.05% Tween20, pH 7.5). A three-fold dilution series of CD44v6 and negative control CD44, comprised of five concentrations ranging between 10-0.12 nM, were prepared in running buffer. A four-fold dilution series of human, cynomolgus and rabbit v6-peptide, respectively, comprised of five concentrations ranging between 100-0.39 nM, were also prepared in running buffer. Each dilution series were sequentially injected, starting with the lowest concentration first, over an immobilized antibody clone and chip surfaces were regenerated with 10 mM glycin-HCl, pH 2.1. See table 10 for specifications of antigens used in SPR measurements. By subtracting the response curve of a reference surface (an activated and deactivated chip surface) and to a blank run (running buffer injected instead of antigen) response curve sensorgrams were obtained. Data was analyzed using the Biacore T200 Evaluation 3.1 software and a 1:1 Langmuir binding model.

[2] = molecular target: T1, Human v6-peptide; experiment: SPR SCK, antibody immobilised, peptide injected
Method: as §1

[3] = molecular target: T2, Cynomolgus v6-peptide; experiment: SPR SCK, antibody immobilised, peptide injected
Method: as §1

[4] = molecular target: T4, Rabbit v6-peptide (rabbit); experiment: SPR SCK, antibody immobilised, peptide injected
T4 construct: domain: v6-region (43 amino acids); also called Rb v6-peptide; rb v6-peptide
Method: as §1

[5] = molecular target: T5, Human CD44v6 iso4-Fc (human, UniProt P16070-4 21-606, limits assumed, chemically biotinylated in the form called Bio-CD44v6); experiment: SPR SCK, antibody immobilised, CD44v6-Fc injected
T5 construct: Custom ordered from ProMab, produced in HKB11 cells; The biotinylated and the plain form are kept as one molecule; also called Bio-CD44v6; bio-CD44v6
Method: as §1

[6] = molecular target: T5, Human CD44v6 iso4-Fc; experiment: SPR SCK, antibody immobilised, CD44v6-Fc injected; apparent KD
Method: as §1

[7] = molecular target: T1, Human v6-peptide; experiment: SPR SCK, biotin-peptide on SA chip, antibody injected
Method: (§2) For kinetic measurements of human v6-peptide, a streptavidin (SA) sensor chip was used to immobilize the v6-peptide at approximately 20 RU. A five-fold dilution series of each antibody, consisting of five concentrations ranging between 50 nM-0.08 nM, were prepared in running buffer and sequentially injected over the chip surfaces.
(§3) All experiments were performed at 25° C. in running buffer (HBS supplemented with 0.05% Tween20, pH 7.5) and the chip surfaces were regenerated with 10 mM glycine-HCl, pH 2.1. By subtracting the response curve of a reference surface (an α-human Kappa antibody immobilized surface or a streptavidin immobilized surface) and to a blank run (running buffer injected instead of antigen or antibody) response curve sensorgrams were obtained. Data was analyzed using the Biacore T200 Evaluation 3.1 software and a 1:1 Langmuir binding model.

[8] = molecular target: T5, Human CD44v6 iso4-Fc; experiment: SPR SCK, antibody captured via anti-kappa, CD44v6-Fc injected
Method: (§4) Kinetic measurements were performed on a BIAcore T200 instrument (Cytiva) using a SCK approach. An α-human Kappa antibody (GE Healthcare #28958325), functioning as a capture ligand, was immobilized onto all four surfaces of a CM5-S amine sensor chip according to manufacturer's recommendations. Antibodies were injected and captured at equal response units (RU). A four-fold dilution series of CD44v6, consisting of five concentrations ranging between 80 nM-0.3 nM, were prepared in running buffer and sequentially injected over the chip surfaces. Single injections of 100 nM CD44 (negative control) was also performed.
as §3

[9] = molecular target: T1, Human v6-peptide; experiment: SPR SCK, biotin-peptide on SA chip, antibody injected; apparent KD
Method: as §2, §3

[10] = molecular target: T5, Human CD44v6 iso4-Fc; experiment: SPR SCK, antibody captured via anti-kappa, CD44v6-Fc injected; apparent KD
Method: as §4, §3

T3 sequence (P16070 other isoform, or with tags, fused parts or gaps limits assumed): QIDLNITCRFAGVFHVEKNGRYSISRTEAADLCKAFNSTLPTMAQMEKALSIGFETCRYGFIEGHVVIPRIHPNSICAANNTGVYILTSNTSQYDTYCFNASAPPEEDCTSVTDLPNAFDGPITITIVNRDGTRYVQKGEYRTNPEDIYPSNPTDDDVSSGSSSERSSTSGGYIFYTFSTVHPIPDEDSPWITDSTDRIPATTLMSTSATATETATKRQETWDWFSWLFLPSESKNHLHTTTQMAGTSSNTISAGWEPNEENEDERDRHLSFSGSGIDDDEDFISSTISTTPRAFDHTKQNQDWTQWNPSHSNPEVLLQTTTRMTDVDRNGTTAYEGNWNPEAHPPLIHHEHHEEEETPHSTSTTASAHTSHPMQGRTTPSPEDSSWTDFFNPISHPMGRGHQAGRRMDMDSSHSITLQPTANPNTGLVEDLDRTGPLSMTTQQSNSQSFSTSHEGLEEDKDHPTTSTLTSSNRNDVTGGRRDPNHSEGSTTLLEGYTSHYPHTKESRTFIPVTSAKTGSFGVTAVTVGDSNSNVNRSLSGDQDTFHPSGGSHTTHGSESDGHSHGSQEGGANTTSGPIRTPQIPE
T5 sequence (P16070 other isoform, or with tags, fused parts or gaps limits assumed): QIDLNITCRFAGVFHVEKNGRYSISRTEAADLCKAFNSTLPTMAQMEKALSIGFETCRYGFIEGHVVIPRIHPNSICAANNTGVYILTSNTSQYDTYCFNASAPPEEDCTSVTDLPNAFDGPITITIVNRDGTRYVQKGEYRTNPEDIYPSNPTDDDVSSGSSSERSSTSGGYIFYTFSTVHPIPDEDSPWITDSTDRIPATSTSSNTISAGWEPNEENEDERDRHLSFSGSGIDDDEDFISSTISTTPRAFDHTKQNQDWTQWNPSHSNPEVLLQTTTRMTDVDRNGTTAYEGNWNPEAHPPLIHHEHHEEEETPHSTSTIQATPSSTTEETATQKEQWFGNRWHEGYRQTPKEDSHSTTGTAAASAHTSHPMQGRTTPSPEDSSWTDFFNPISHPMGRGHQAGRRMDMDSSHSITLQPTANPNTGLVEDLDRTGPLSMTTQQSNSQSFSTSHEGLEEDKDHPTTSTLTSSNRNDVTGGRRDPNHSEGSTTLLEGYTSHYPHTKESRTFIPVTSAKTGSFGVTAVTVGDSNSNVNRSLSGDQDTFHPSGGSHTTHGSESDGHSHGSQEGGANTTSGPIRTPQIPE

Row | Binder | Kd [2] [nM] | koff [2] [s⁻¹] | kon [2] [M⁻¹ s⁻¹] | Kd [3] [nM] | koff [3] [s⁻¹] | kon [3] [M⁻¹ s⁻¹] | Kd [4] [nM] | koff [4] [s⁻¹] | kon [4] [M⁻¹ s⁻¹] | koff [5] [s⁻¹] | kon [5] [M⁻¹ s⁻¹] | Kd [6] [nM] | koff [7] [s⁻¹] | kon [7] [M⁻¹ s⁻¹] | koff [8] [s⁻¹] | kon [8] [M⁻¹ s⁻¹] | Kd [9] [nM] | Kd [10] [nM] | binding result [1]
1 | AL-MN114-132 IgG1 LALA (antibody, V domains shown, item 20 iii) gives heavy 77 / light 96 without naming the format) VH: EVQLLESGGGLVQPGGSLRLSCAASGFTFSSYAMSWVRQAPGKGLEWVSAISGGGSSTYYADSVKGRFTISRDNSKNTLYLQMNSLRAEDTAVYYCARHYYSDSDYRSSAAMDYWGQGTLVTVSS VL: DIQMTQSPSSLSASVGDRVTITCRASQSISSYLNWYQQKPGKAPKLLIYAASSLQSGVPSRFSGSGSGTDFTLTISSLQPEDFATYYCQQDLYLLTFGQGTKLEIK | 12 | 0.013 | 1.1e+06 | 7.3 | 0.0096 | 1.3e+06 | 13 | 0.023 | 1.7e+06 | 0.00012 | 1.9e+06 | 0.062 | – | – | – | – | – | – | no binding (tested: 10 nM highest CD44 concentration)
2 | AL-MN114-444 IgG1 LALA IAHA (antibody, V domains shown, Human IgG1 LALA IAHA, kappa) VH: EVQLLESGGGLVQPGGSLRLSCAASGFTFRSFAMSWVRQAPGKGLEWVSAISGGGSSTFYADSVKGRFTISRDNSKNTLYLQMNSLRAEDTAVYYCARHYYSDSDYRSSAAMDYWGQGTLVTVSS VL: DIQMTQSPSSLSASVGDRVTITCRASQSIGSYLNWYQQKPGKAPKLLIYSASSLQSGVPSRFSGSGSGTDFTLTISSLQPEDFATYYCQQDLYLLTFGQGTKLEIK | 12 | 0.0083 | 710000 | 11 | 0.0079 | 720000 | 15 | 0.012 | 820000 | 0.00032 | 320000 | 1 | – | – | – | – | – | – | no binding (tested: 10 nM highest CD44 concentration)
3 | AL-MN114-71 IgG1 LALA IAHA (antibody, V domains shown, Human IgG1 LALA IAHA, kappa) VH: EVQLLESGGGLVQPGGSLRLSCAASGFSFRSFAMSWVRQAPGKGLEWVSAISGGGSSTFYADSVKGRFTISRDNSKNTLYLQMNSLRAEDTAVYYCARHYYSDSDYRSSAAMDYWGQGTLVTVSS VL: DIQMTQSPSSLSASVGDRVTITCRASQSISSYLNWYQQKPGKAPKLLIYAASTLQSGVPSRFSGSGSGTDFTLTISSLQPEDFATYYCQQDLYLLTFGQGTKLEIK | 17 | 0.011 | 620000 | 13 | 0.0095 | 710000 | 22 | 0.016 | 710000 | 0.00026 | 230000 | 1.1 | – | – | – | – | – | – | no binding (tested: 10 nM highest CD44 concentration)
4 | U-MN114-19 IgG4 S228P (antibody, V domains shown, Human IgG4 S228P (EU), kappa; also called MN19; parental clone) VH: not shown VL: DIQMTQSPSSLSASVGDRVTITCRASQSISSYLNWYQQKPGKAPKLLIYAASSLQSGVPSRFSGSGSGTDFTLTISSLQPEDFATYYCQQDLYLLTFGQGTKLEIK | – | – | – | – | – | – | – | – | – | – | – | – | 0.00018 | 730000 | 0.001 | 320000 | 0.28 | 3.3 | –
5 | U-MN114-19 IgG1 LALA IAHA (antibody, V domains shown, also called parental clone U-MN114-19) VH: not shown VL: DIQMTQSPSSLSASVGDRVTITCRASQSISSYLNWYQQKPGKAPKLLIYAASSLQSGVPSRFSGSGSGTDFTLTISSLQPEDFATYYCQQDLYLLTFGQGTKLEIK | 17 | 0.019 | 1.1e+06 | 20 | 0.034 | 1.7e+06 | 31 | 0.067 | 2.2e+06 | 0.00012 | 2.5e+06 | 0.05 | – | – | – | – | – | – | no binding (tested: 10 nM highest CD44 concentration)

More lines, in order of falling Kd [2], values ahead:

Row | Kd [2] [nM] | koff [2] [s⁻¹] | kon [2] [M⁻¹ s⁻¹] | Kd [3] [nM] | koff [3] [s⁻¹] | kon [3] [M⁻¹ s⁻¹] | Kd [4] [nM] | koff [4] [s⁻¹] | kon [4] [M⁻¹ s⁻¹] | koff [5] [s⁻¹] | kon [5] [M⁻¹ s⁻¹] | Kd [6] [nM] | koff [7] [s⁻¹] | kon [7] [M⁻¹ s⁻¹] | koff [8] [s⁻¹] | kon [8] [M⁻¹ s⁻¹] | Kd [9] [nM] | Kd [10] [nM] | Binder | binding result [1]
6 | 58 | 0.049 | 830000 | 44 | 0.046 | 1e+06 | 79 | 0.15 | 2e+06 | 0.00015 | 130000 | 1.2 | – | – | – | – | – | – | U-MN114-19 IgG1 LALA (antibody, V domains shown, item 20 xxi) gives heavy 149 / light 150 without naming the format; also called parental clone U-MN114-19) VH: not shown VL: DIQMTQSPSSLSASVGDRVTITCRASQSISSYLNWYQQKPGKAPKLLIYAASSLQSGVPSRFSGSGSGTDFTLTISSLQPEDFATYYCQQDLYLLTFGQGTKLEIK | no binding (tested: 10 nM highest CD44 concentration)
7 | 22 | 0.016 | 730000 | 17 | 0.014 | 860000 | 37 | 0.037 | 990000 | 0.00021 | 140000 | 1.5 | – | – | – | – | – | – | AL-MN114-132 IgG1 LALA IAHA (antibody, V domains shown, Human IgG1 LALA IAHA, kappa) VH: EVQLLESGGGLVQPGGSLRLSCAASGFTFSSYAMSWVRQAPGKGLEWVSAISGGGSSTYYADSVKGRFTISRDNSKNTLYLQMNSLRAEDTAVYYCARHYYSDSDYRSSAAMDYWGQGTLVTVSS VL: DIQMTQSPSSLSASVGDRVTITCRASQSISSYLNWYQQKPGKAPKLLIYAASSLQSGVPSRFSGSGSGTDFTLTISSLQPEDFATYYCQQDLYLLTFGQGTKLEIK | no binding (tested: 10 nM highest CD44 concentration)
8 | 14 | 0.0093 | 680000 | 13 | 0.0085 | 680000 | 19 | 0.015 | 830000 | 0.00027 | 170000 | 1.6 | – | – | – | – | – | – | AL-MN114-465 IgG1 LALA IAHA (antibody, V domains shown, Human IgG1 LALA IAHA, kappa) VH: EVQLLESGGGLVQPGGSLRLSCAASGFSFGSYAMSWVRQAPGKGLEWVSAISAGGSSTFYADSVKGRFTISRDNSKNTLYLQMNSLRAEDTAVYYCARHYYSDSDYRSSAAMDYWGQGTLVTVSS VL: DIQMTQSPSSLSASVGDRVTITCRASQSISSYLNWYQQKPGKAPKLLIYTASSLQSGVPSRFSGSGSGTDFTLTISSLQPEDFATYYCQQDLYLLTFGQGTKLEIK | no binding (tested: 10 nM highest CD44 concentration)
